Among the data in US20190367626A1 are percent of cells in the gate values, retold here.

The target of one assay is TRAILshort (UniProt P50591). Put plainly: flow cytometry of 293T cells transfected with WT TRAILshort, isotype control staining.
The next assay deals with P76A TRAILshort. In words: flow cytometry of 293T cells transfected with P76A TRAILshort, isotype control staining.

TRAILshort, sequence (P50591 other isoform, or with tags, fused parts or gaps): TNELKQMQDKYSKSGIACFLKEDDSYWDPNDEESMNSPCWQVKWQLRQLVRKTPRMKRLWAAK

In the case of “C555 labeled anti-Ig3 Isotype control (antibody)”, the percent of cells in the gate with TRAILshort was 3.2%; with P76A TRAILshort, 2.2%.
